From US7084111

How the values were obtained:
Assay in all cases: cell-based or functional assay
[1] = biological target: mouse melanocortin-1 receptor (mouse) (UniProt Q01727)
[2] = biological target: mouse melanocortin-5 receptor (mouse) (UniProt P41149)
[3] = biological target: mouse melanocortin-3 receptor (mouse) (UniProt P33033)
[4] = biological target: mouse melanocortin-4 receptor (mouse) (UniProt P56450)
Sequence of mouse melanocortin-4 receptor (mouse) (P56450 whole entry): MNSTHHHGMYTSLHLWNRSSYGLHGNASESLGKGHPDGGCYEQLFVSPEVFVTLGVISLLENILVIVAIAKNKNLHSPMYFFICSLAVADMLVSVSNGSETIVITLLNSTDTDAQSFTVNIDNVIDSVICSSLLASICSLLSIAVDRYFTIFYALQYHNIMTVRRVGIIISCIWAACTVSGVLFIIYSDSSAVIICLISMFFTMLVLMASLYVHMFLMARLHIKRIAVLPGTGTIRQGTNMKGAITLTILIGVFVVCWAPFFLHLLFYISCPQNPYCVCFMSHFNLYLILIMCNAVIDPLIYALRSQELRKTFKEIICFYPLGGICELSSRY

Sequence of mouse melanocortin-5 receptor (mouse) (P41149 whole entry): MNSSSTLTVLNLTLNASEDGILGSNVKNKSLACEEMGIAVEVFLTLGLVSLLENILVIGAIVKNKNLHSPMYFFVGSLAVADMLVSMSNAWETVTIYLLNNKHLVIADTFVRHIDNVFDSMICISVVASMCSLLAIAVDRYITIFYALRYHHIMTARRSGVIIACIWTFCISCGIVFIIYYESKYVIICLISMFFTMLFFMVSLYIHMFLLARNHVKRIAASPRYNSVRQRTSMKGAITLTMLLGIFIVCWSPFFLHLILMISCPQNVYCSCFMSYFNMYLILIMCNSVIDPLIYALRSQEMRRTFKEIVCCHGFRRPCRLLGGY
Sequence of mouse melanocortin-1 receptor (mouse) (Q01727 whole entry): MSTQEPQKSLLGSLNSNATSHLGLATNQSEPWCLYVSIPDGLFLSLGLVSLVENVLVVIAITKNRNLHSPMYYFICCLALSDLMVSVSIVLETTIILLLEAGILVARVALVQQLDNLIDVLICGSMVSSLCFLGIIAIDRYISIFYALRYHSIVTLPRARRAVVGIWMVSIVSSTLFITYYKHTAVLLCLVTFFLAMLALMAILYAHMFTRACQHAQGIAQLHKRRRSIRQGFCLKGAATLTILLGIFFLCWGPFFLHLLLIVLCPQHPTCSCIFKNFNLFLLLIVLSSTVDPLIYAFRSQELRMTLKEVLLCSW
Sequence of mouse melanocortin-3 receptor (mouse) (P33033 whole entry): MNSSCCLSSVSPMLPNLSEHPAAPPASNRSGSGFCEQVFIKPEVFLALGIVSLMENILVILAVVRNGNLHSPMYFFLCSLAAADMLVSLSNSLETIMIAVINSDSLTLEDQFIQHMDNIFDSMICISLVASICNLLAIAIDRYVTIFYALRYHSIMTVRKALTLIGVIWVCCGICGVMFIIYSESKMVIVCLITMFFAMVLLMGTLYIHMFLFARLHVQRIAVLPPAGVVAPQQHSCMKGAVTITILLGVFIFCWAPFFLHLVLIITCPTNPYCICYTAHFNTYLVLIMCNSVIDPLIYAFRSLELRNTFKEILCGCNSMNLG

Row | Substance | EC50 (agonist) [1] [nM] | EC50 (agonist) [2] [nM] | EC50 (agonist) [3] [nM] | pA2 (antagonist) [4]
1 | MTII (peptide) | 0.02 | – | – | –
2 | NDP-MSH (peptide) | – | 0.071 | 0.098 | –
3 | hAGRP(109-118) decapeptide (from UniProt O00253 109-118) | 5120 | > 100000 | > 100000 | 6.8
